# Test results reported in patent US20180000964A1 (Genentech, published 2018).
# Read-outs that look alike come from different tables or passages of the source.
# B1: anti-Bsg^A (antibody, V domains shown)
# VH: EVQLVESGGGLVLPGRSMKLSCAASGFTFRTYYMAWVRQAPTKGLEWVASISIGGDNTYYRDSVMGRFTISRDDAKSTLHLQMDNLRSEDTATYYCVRLRGYFDYWGQGVMVTVSS
# VL: EIVLTQSPATMPASPGEKVTLTCRASSSIRYIYWYQQKSGTSPKLWIYDTSKLASGVPNRFSGSGSGTSYSLTISSMETEDTATYYCQQGRSYPLTFGSGTKLEIK
# notes: also called bivalent (monospecific) anti-Bsg^A
# B2: anti-Bsg^B (antibody, V domains shown)
# VH: EVQLVESGGGLVQPGRSLKLSCVASGFTFNNYWMTWIRQAPGKGLEWFASITNTGGSTYYPDSVKGRFTISRDNAQSTLYLQTNSLRPEDTATYYCARRDGSYYPYYWYFDLWGPGTTVTVSS
# VL: NTVMTQSPTSMFISVGDRVTMNCKASRSVGTNVDWYQQKTGQSPTLLFYGASNRYIGVPDRFTGSGSGTDFTLTISNMQAEDLAVYYCLQYNYNWAFGGGTKLELK
# notes: also called bivalent (monospecific) anti-Bsg^B
# B3: anti-Glut1 antibody (antibody, V domains shown)
# VH: QVQLQQPGSVLVRPGASVKLSCKASGYTFTGSWLHWAKQRPGQGLEWIGEIHPYSGNTNYNERFKGKATLTVDTPSSTAYVDLRSLTFEDSAVYYCAKEGGWFLRIYGMDYWGQGTSVTVSS
# VL: DIVLTQSPSSLSASLGDTITITCHASQNINVWLSWYQQKPGNIPKLLIYKASNLHSGVPSRFSGSGSGTGFTLTISSLQPEDIATYYCQQGQTFPYTFGGGTRLEIK
# notes: Raised by DNA immunization with hGlut1 cDNA; also called bivalent (monospecific) anti-Glut1
# Assays:
# [1] = molecular target: T1, murine basigin extracellular domain, murine Fc tagged (murine); test: Biacore; 'Binding affinity (nM)'; form of the antigen not stated
# T1 construct: also called mBsg ECD; murine basigin (ELISA antigen)
# T1 chain: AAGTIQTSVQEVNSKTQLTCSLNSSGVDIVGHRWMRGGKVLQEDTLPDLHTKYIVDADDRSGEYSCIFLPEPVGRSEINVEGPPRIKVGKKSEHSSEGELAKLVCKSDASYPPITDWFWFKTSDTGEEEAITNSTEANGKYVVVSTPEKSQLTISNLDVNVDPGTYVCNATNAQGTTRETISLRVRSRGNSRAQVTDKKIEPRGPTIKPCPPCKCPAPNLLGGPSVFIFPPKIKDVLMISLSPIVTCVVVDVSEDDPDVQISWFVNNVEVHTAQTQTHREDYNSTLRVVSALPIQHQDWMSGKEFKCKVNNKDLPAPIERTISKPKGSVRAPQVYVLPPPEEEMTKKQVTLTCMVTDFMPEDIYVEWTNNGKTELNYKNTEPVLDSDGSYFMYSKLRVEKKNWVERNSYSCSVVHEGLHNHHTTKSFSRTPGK
# [2] = molecular target: murine basigin extracellular domain, murine Fc tagged (murine); test: competitive ELISA on coated murine basigin against biotinylated bispecific antibody
# [3] = molecular target: T1, murine basigin extracellular domain, …; test: as above
# Protocol: Nunc 96-well Maxisorp immunoplates were coated overnight at 4° C. with antigen (2 μg/ml) and blocked for 1 hour at room temperature with blocking buffer PBST. Serial dilutions of bivalent or bispecific antibodies were subsequently added to the plates with a sub-saturating concentration of biotinylated bispecific antibody at room temperature for 1 hour. Plates were washed with wash buffer (PBS with 0.05% Tween 20) and incubated for 30 minutes with horseradish peroxidase (HRP)-conjugated streptavidin, and developed with tetramethylbenzidine (TMB) substrate. Absorbance was measured spectrophotometrically at 650 nm.
# [4] = molecular target: T2, murine Glut1 (on cells) (murine, UniProt P17809 1-492); test: flow cytometry (MFI) on HEK293 cells stably expressing Glut1; bivalent (monospecific) anti-Glut1, not the bispecific anti-Glut1/BACE1
# T2 construct: whole, on cells; also called glucose transporter 1; Slc2a1
# T2 sequence (looked up): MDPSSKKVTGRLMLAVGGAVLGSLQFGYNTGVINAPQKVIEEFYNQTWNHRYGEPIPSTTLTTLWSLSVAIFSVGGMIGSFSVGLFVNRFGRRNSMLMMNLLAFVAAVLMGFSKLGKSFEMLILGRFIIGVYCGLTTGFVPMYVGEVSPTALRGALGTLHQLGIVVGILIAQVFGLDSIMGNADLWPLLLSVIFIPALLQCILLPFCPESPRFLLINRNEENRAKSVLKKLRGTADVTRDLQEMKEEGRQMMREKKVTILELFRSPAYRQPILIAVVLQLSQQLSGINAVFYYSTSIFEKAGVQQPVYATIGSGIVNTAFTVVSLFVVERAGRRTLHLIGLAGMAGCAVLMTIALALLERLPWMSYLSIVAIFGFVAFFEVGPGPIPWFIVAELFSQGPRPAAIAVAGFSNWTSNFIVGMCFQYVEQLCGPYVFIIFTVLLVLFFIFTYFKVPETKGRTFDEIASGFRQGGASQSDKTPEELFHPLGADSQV
# Protocol: Purified antibodies were screened on 293 cells transfected with the corresponding antigens. Cells were collected from flasks/dishes, washed with phosphate-buffered saline (PBS), and added to 96-well U-bottom plates (BD Falcon 353077, BD, Franklin Lakes, N.J.) at 1,000,000 cells per well. Samples were added to cells (100 μL/well) and incubated at 4° C. for 30-60 minutes. Plates were then centrifuged (1200 rpm, 5 minutes, 4° C.) and washed twice with PBS/1% FBS (200 μl per well). R-Phycoerythrin-conjugated Ziege anti-human IgG Fc (Jackson ImmunoReseach Laboratories Inc. (West Grove, Pa.); 109-116-098; 100 μl diluted in PBS) was then added and the plates incubated at 4° C. (covered) for 30 minutes. After the final wash, the cells were fixed in PBS containing 1% formalin, and read using a FACSCalibur™ flow cytometer (BD Biosciences, San Jose, Calif.). Mean fluorescence intensity (MFI) of each sample was then measured using the FlowJo software (Treestar, Inc., Ashland, Oreg.).
Binder,Kd [1] [nM],IC50 [2] [nM],IC50 [3] [nM],EC50 [4] [µg/mL]
B1,13.5,106,7.1,
B2,102,127,17.5,
B3,,,,0.6
